These results are taken from article PMC4159138, “Fission Yeast Pxd1 Promotes Proper DNA Repair by Activating Rad16^XPF and Inhibiting Dna2” (PLoS Biology, 2014).

Data set [1] addresses T1, Dna2 co-overexpressed with Cdc24-YFH and purified from fission yeast (S. pombe, UniProt Q9URU2 1-1397).
T1 construct: Dna2, S. pombe; The Dna2 chain of m29, written alone for the cross-links with Cdc24; source: fission yeast pxd1Δ cells, co-overexpressed with Cdc24-YFH, purified (anti-FLAG beads)
T1 sequence (looked up): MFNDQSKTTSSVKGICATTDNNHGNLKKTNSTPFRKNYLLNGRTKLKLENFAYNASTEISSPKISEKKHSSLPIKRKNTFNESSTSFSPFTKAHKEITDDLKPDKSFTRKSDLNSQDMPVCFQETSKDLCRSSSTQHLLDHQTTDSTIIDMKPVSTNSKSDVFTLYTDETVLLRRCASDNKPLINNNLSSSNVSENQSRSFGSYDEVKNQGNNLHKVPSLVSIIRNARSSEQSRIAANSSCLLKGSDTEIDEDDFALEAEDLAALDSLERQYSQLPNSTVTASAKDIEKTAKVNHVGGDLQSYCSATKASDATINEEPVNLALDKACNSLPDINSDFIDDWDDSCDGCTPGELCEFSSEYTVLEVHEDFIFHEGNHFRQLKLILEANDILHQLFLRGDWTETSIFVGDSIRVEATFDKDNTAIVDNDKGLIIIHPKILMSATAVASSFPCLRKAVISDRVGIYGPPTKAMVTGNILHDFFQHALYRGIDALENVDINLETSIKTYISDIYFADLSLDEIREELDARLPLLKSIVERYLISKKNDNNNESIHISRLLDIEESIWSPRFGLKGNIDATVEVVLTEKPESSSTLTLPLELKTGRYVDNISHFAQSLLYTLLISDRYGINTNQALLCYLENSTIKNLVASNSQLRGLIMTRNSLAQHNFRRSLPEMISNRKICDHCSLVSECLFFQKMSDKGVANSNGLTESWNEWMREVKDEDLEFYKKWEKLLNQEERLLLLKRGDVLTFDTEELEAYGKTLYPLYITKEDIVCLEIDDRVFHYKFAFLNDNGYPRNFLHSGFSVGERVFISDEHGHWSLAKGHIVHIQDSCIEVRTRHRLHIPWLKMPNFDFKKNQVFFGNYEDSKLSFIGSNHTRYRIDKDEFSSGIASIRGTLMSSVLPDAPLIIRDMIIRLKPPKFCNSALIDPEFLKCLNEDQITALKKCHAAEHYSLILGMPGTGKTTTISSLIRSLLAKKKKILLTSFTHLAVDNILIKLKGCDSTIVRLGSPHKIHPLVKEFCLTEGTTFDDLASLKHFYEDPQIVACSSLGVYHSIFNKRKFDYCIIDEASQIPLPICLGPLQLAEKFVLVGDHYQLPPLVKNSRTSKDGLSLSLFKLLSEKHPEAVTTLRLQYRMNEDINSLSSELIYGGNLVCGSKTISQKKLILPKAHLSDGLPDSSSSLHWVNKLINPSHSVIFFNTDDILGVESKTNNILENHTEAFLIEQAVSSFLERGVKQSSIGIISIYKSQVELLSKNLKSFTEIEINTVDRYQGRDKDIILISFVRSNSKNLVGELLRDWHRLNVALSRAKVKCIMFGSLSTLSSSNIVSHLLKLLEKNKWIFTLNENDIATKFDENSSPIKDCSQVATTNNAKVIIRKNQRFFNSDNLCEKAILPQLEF
Kind of data set: cross-linking; CXMS: Dna2-Cdc24-Pxd1(227–351) complex formed on anti-FLAG beads and eluted with 3× FLAG peptide; about 12 µg cross-linked by BS3 or DSS (0.5 mM, 1 h, room temperature), trypsin, LC-MS/MS, pLink. The note with it: both partners purified.

For another data set, the target named is T2, RPA (UniProt Q92372;Q92373;Q92374 1-609;1-279;1-104).
T2 sequence 1: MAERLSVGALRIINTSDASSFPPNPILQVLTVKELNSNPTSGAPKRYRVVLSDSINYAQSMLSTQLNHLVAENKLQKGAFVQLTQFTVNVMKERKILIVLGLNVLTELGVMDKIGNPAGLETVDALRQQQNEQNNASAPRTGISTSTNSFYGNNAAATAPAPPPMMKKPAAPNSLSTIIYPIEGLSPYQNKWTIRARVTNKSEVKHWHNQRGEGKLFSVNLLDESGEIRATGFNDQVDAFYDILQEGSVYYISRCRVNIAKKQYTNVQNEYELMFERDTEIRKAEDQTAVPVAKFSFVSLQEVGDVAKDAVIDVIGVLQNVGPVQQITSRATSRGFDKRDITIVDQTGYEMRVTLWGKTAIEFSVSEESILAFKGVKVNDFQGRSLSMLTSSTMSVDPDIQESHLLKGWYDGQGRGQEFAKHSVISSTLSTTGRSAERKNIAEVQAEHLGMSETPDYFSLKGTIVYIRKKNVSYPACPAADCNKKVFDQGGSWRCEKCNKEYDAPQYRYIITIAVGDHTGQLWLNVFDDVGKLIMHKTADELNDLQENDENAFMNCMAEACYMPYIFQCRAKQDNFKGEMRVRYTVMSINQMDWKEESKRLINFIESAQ
T2 sequence 2: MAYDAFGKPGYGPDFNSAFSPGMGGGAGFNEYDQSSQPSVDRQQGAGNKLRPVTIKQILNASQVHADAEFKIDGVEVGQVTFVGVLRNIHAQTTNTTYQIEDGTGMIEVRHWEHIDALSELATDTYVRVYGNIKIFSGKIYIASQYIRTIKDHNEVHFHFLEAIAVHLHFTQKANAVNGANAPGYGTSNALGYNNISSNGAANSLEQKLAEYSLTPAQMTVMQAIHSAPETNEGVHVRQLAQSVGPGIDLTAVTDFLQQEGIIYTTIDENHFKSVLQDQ
T2 sequence 3: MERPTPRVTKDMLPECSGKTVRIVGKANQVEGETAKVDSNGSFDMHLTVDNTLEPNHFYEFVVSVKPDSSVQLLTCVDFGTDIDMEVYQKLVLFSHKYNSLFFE
Kind of data set: EMSA; 1 mM EDTA; 50 ng RPA; 50 mM Tris-HCl pH 7.5, 1 mM EDTA, 1 mM DTT, 0.1 mg/ml BSA, 50 mM NaCl, 5% glycerol, 15 fmol DNA in 10 µl, room temperature 30 min; 5% PAGE in 1x TBE. The note with it: protein: recombinant; tags: 6xHis-GST on Rpa1 in plasmid pDB2129; copies: 1;1;1; label: 5' 32P on oligo461; 18 bp duplex with 5' overhang 31 nt on oligo461. Background: A gel shift assay detects complexes by their altered migration in electrophoresis.

B1: Cdc24-YFH co-overexpressed with Dna2 and purified from fission yeast (natural protein, S. pombe, UniProt O75004 1-501, looked up)
chain: MDFPGLIKKIKEDLENRLVEKSKQPAFTDYWLINKTISLLKEYPSGFSYPILINEIELACSERNKLDNVFSSLEWLTKSDAVIYLEDQFHFHCYDYYYTPIPSLKLKDSEENTCEMILHSSFYLLFHEPFNILKGSTLRFSQSRIHQKWYLRKQIRFLPTTSFVPVLQYAASKSFVKSMVESTEHEFFQIRDITISKSDQGVKRITVELGRIISLDKKGAFLIDNNTNFIHFSGTYHDFPKLLDKQQYLLIPFWSTVWEGSTNWQDGMIGILVILSENDFEEKKCDSWQVGRLAAVNSNFLVLDNNGQRVKILYSNSQKHYFKDTYIGDLLCISPINHSSDNLSDYSCVSDTTTEILSNLENPLSSNFLRNDLCKFSNLFSGVSGHLKIQPLTLVITGFVANLTRQSDLNTSLVLPEVNPLTAKMEVIDCLRNSFWAALRPNCVSYFASMISGFKELFQKEMEFPIYLDLKSYKLGFHWCDIYVDSEHNCHIQKINSLPCE
notes: Cdc24, S. pombe; The Cdc24 chain of m29, written alone for the cross-links; source: fission yeast pxd1Δ cells, co-overexpressed with Dna2, purified (anti-FLAG beads)
For B1, in data set [1], the binding result is on record as “binds”.

B2: 5' overhang DNA (oligo461/oligo463) (dsDNA)
DNA 1: CACGCTACCGAATTCTGACTTGCTAGGACATCTTTGCCCACGTTGACCC
DNA 2: GGGTCAACGTGGGCAAAG
As to B2, the binding result with RPA is given as “binds”.
